Assay results published in doi:10.1101/756932 (bioRxiv, 2019).

Columns and labels:
[1] = molecular target: ERK (endogenous, mouse ME cells) (mouse (endogenous in ESC-derived ME cells)) (UniProt Q63844); experiment: proximity ligation
[2] = molecular target: Aurora B (endogenous, mouse cells) (mouse (endogenous in E14 ESCs), UniProt O70126 1-345); experiment: proximity ligation
Sequence of Aurora B (endogenous, mouse cells) (O70126 whole entry): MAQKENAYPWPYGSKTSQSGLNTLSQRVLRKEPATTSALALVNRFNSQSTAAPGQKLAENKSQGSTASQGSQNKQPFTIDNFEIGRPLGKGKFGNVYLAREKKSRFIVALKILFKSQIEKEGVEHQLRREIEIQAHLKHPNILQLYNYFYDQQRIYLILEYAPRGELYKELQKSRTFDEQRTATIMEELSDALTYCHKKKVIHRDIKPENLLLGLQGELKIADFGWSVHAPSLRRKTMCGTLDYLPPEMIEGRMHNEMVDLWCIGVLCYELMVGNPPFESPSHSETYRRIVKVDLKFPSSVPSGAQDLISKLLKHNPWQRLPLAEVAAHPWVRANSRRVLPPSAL

Sequence of ERK (endogenous, mouse ME cells) (mouse (endogenous in ESC-derived ME cells)) (Q63844 whole entry): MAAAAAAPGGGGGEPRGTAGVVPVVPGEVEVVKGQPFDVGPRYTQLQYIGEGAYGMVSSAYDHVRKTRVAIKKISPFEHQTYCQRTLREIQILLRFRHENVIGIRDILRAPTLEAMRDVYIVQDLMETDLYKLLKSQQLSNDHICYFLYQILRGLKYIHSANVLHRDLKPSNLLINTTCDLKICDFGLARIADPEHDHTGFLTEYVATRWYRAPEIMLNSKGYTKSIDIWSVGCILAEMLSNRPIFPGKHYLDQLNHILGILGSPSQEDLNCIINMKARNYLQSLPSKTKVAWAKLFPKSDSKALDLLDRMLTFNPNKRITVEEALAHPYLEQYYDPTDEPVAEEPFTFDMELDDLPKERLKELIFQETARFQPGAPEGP

- fold reduction of PLA interaction foci in the cytoplasm against wild-type cells [1]: 3 fold
- fold reduction of PLA interaction foci in the nucleus against wild-type cells [1]: 5 fold
- fold increase of PLA interaction against wild-type cells [2]: ~3 fold
B1: CNOT3-T292A/S294A (endogenous, Cnot3-DM mouse ESCs) (natural protein, mouse (endogenous in E14 ESCs), UniProt Q8K0V4 1-751, looked up)
chain: MADKRKLQGEIDRCLKKVSEGVEQFEDIWQKLHNAANANQKEKYEADLKKEIKKLQRLRDQIKTWVASNEIKDKRQLIENRKLIETQMERFKVVERETKTKAYSKEGLGLAQKVDPAQKEKEEVGQWLTNTIDTLNMQVDQFESEVESLSVQTRKKKGDKDKQDRIEGLKRHIEKHRYHVRMLETILRMLDNDSILVDAIRKIKDDVEYYVDSSQDPDFEENEFLYDDLDLEDIPQALVATSPPSHSHMEDEIFNQSSSTPTSTTSSSPIPPSPANCTTENSEDDKKRGRSADAEVSQSPAKNGSKPVHSNQHPQSPAVPPTYPSGPPPTTSALSSTPGNNGASTPAAPTSALGPKASPAPSHNSGTPAPYAQAVAPPNASGPSNAQPRPPSAQPSGGSGGGSGGSSSNSNSGTGGGAGKQNGATSYSSVVADSPAEVTLSSSGGSSASSQALGPTSGPHNPAPSTSKESSTAAPSGAGNVASGSGNNSGGPSLLVPLPVNPPSSPTPSFSEAKAAGTLLNGPPQFSTTPEIKAPEPLSSLKSMAERAAISSGIEDPVPTLHLTDRDIILSSTSAPPTSSQPPLQLSEVNIPLSLGVCPLGPVSLTKEQLYQQAMEEAAWHHMPHPSDSERIRQYLPRNPCPTPPYHHQMPPPHSDTVEFYQRLSTETLFFIFYYLEGTKAQYLAAKALKKQSWRFHTKYMMWFQRHEEPKTITDEFEQGTYIYFDYEKWGQRKKEGFTFEYRYLEDRDLQ
